Data taken from the Human Domainome abundance scans (Beltran et al. 2025).
± gives the uncertainty stated by the source.

B1: Cullin-9, residues 2234 to 2275; numbered along this chain, Q8IWT3 (parent)
chain: KRCPSCQAPIEKNEGCLHMTCAKCNHGFCWRCLKSWKPNHKD

Variants of: B1
Assay: abundance fitness (aPCA) (normalised: wild type 0, dead -1); higher = more abundant; growth selection in yeast, the domain comes from the species named
Conditions: Homo sapiens

Abundance fitness, by site and new letter:
E11: Q -0.448 ± 0.33, S -0.41 ± 0.12, T -0.159 ± 0.15, V -0.408 ± 0.1, W -0.069 ± 0.14, Y 0.319 ± 0.45
K12: A 0.126 ± 0.081, D -0.248 ± 0.12, F -0.469 ± 0.38, G 0.268 ± 0.071, H -0.151 ± 0.2, I -0.492 ± 0.23, L -0.201 ± 0.081, M -0.22 ± 0.12, P 0.057 ± 0.081, Q 0.008 ± 0.091, S -0.112 ± 0.085, T -0.046 ± 0.095, V -0.2 ± 0.089, Y -0.152 ± 0.17
N13: A -0.071 ± 0.074, C -0.101 ± 0.15, D -0.209 ± 0.13, E -0.002 ± 0.1, F -0.36 ± 0.17, G -0.059 ± 0.07, H -0.165 ± 0.14, I 0.493 ± 0.18, K 0.117 ± 0.11, L 0.229 ± 0.092, M -0.023 ± 0.097, P 0.183 ± 0.12, Q -0.044 ± 0.097, R -0.034 ± 0.075, S -0.096 ± 0.1, T 0.185 ± 0.1, V 0.051 ± 0.085, W 0 ± 0.1, Y -0.244 ± 0.16
E14: A -0.001 ± 0.087, C -0.001 ± 0.13, D -0.084 ± 0.16, F -0.492 ± 0.2, G -0.071 ± 0.087, K -0.473 ± 0.17, L -0.411 ± 0.12, M 0.121 ± 0.23, N -0.219 ± 0.24, P -0.011 ± 0.16, Q -0.132 ± 0.13, R -0.369 ± 0.091, S -0.047 ± 0.1, T -0.12 ± 0.15, V -0.397 ± 0.092, W -0.362 ± 0.14
G15: A -0.003 ± 0.1, C -0.113 ± 0.33, E 0.045 ± 0.097, H -0.492 ± 0.17, K -0.294 ± 0.15, L -0.515 ± 0.17, M -0.576 ± 0.17, P -0.259 ± 0.12, Q -0.777 ± 0.21, R -0.096 ± 0.092, S -0.362 ± 0.11, T -0.698 ± 0.17, W -0.176 ± 0.1
C16: A 0.329 ± 0.079, D 0.544 ± 0.092, E 0.507 ± 0.082, F -0.149 ± 0.15, G 0.55 ± 0.069, H 0.105 ± 0.14, I 0.444 ± 0.16, K 0.324 ± 0.099, L -0.115 ± 0.084, M 0.202 ± 0.11, N 0.23 ± 0.13, P 0.161 ± 0.098, Q 0.416 ± 0.091, R 0.227 ± 0.073, S 0.422 ± 0.083, T 0.471 ± 0.11, V 0.449 ± 0.085, W -0.121 ± 0.09, Y -0.032 ± 0.15
L17: A -0.053 ± 0.079, C -0.209 ± 0.25, D -0.006 ± 0.14, G -0.062 ± 0.075, I -0.267 ± 0.2, K -0.862 ± 0.17, M -0.071 ± 0.13, N -0.858 ± 0.21, P -0.047 ± 0.12, R -0.614 ± 0.085, S -0.186 ± 0.12, T -0.236 ± 0.12, W -0.169 ± 0.099, Y 0.383 ± 0.29
H18: A -0.142 ± 0.083, C -0.425 ± 0.14, D -0.274 ± 0.16, E 0.019 ± 0.094, F -0.058 ± 0.29, G -0.216 ± 0.081, I -0.155 ± 0.19, L -0.104 ± 0.09, M 0.154 ± 0.1, P -0.427 ± 0.098, Q 0.106 ± 0.1, R -0.016 ± 0.073, T -0.438 ± 0.12, V -0.393 ± 0.099, W -0.329 ± 0.09, Y -0.503 ± 0.16
M19: A -0.048 ± 0.095, C -0.012 ± 0.13, D 0.046 ± 0.13, E -0.186 ± 0.1, F -0.48 ± 0.22, G -0.22 ± 0.074, H -0.405 ± 0.21, I -0.008 ± 0.19, K 0.003 ± 0.13, L -0.034 ± 0.092, N -0.161 ± 0.18, P 0.012 ± 0.1, Q -0.019 ± 0.12, R -0.28 ± 0.08, S 0.016 ± 0.097, T 0.182 ± 0.11, V 0.264 ± 0.076, W -0.223 ± 0.1, Y -0.803 ± 0.46
T20: A -0.218 ± 0.085, C -0.447 ± 0.13, D -0.166 ± 0.14, E -0.306 ± 0.11, F -0.462 ± 0.24, G -0.288 ± 0.083, H -0.154 ± 0.15, I 0.196 ± 0.16, L -0.099 ± 0.097, M -0.035 ± 0.12, P -0.103 ± 0.1, Q -0.029 ± 0.1, R -0.143 ± 0.077, S -0.304 ± 0.097, W -0.172 ± 0.093, Y 0.316 ± 0.2
C21: D -0.239 ± 0.13, E -0.137 ± 0.096, F -0.917 ± 0.33, G -0.482 ± 0.078, H -1.16 ± 0.29, I -0.968 ± 0.25, K -0.489 ± 0.12, M -0.962 ± 0.16, N -0.462 ± 0.21, P -0.612 ± 0.12, Q -0.537 ± 0.12, R -0.866 ± 0.094, V -0.677 ± 0.095, W -0.823 ± 0.12, Y -0.465 ± 0.2
